# In patent US20170240629A1 (Hoffmann-La Roche, published 2017):
# Assays:
# [1] = molecular target: rabbit IL-1beta (rabbit, UniProt P14628 117-268, limits assumed); assay: SPR (BIAcore)
# [2] = molecular target: T1, human IL-1beta (human, UniProt P01584 117-269); assay: cell-based or functional assay
# [3] = molecular target: T1, human IL-1beta; assay: cell-based or functional assay; remark: listed apart in the source
# [4] = molecular target: T1, human IL-1beta; assay: cell-based or functional assay; remark: listed apart in the source
# [5] = molecular target: T2, murine IL-1beta (murine, UniProt P10749 118-269); assay: ELISA, murine IL-1beta coated, Example 6
# T2 sequence (P10749 118-269 limits assumed): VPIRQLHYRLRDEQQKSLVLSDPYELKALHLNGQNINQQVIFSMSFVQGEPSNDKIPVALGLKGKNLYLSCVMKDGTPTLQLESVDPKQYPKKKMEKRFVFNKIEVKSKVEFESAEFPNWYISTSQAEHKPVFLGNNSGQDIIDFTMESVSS
# Method: (§1) The binding analysis was carried out using an enzyme-linked immunosorbent assay (ELISA)-based technology. […] The EC₅₀ was calculated with a four parameter logistic model using GraphPad Prism 6.0 software.
# [6] = molecular target: T3, cynomolgus IL-1beta (cynomolgus, UniProt P79182 117-268); assay: ELISA, cynomolgus IL-1beta coated, Example 5
# Method: as §1
# [7] = molecular target: T4, His-tagged human IL-1beta (human, UniProt P01584 117-269); assay: ELISA, His-tagged human IL-1beta coated, Example 4 variant 2
# T4 construct: also called human His-tagged IL-1beta protein (Sino Biologics 10139-H07E); not shown: His tag
# [8] = molecular target: T1, human IL-1beta; assay: ELISA, human IL-1beta (Peprotech) coated, Example 4 variant 1
# Method: as §1
# [9] = molecular target: T2, murine IL-1beta; assay: ELISA, murine IL-1beta coated, Example 6; based on MW 150 kDa
# Method: as §1
# [10] = molecular target: T1, human IL-1beta; assay: SPR (BIAcore); antibody captured by anti-Fc, IL-1beta injected
# Method: (§2) All experiments were performed at 25° C. using HBS-P (10 mM His, 140 mM NaCl, 0.05% Tween 20 pH 7.4) as running and dilution buffer. Anti-human or anti-mouse Fc antibodies were immobilized on a Series S CM5 Sensor Chip (GE Healthcare) using standard amine coupling chemistry. […] The dissociation phase was monitored for 600 sec by washing with running buffer. […] The surface was regenerated by injecting 3 M MgCl2 (for anti-human Fc antibody) or 10 mM Glycine pH 1.5 (for anti-mouse Fc antibody) for 60 sec at a flow rate of 5 μl/min. Bulk refractive index differences were corrected by subtracting the response obtained from a mock surface. Blank injections were subtracted (double referencing). The derived curves were fitted to a 1:1 Langmuir binding model using the BIAevaluation software.
# [11] = molecular target: T3, cynomolgus IL-1beta; assay: as above
# Method: as §2
# [12] = molecular target: T2, murine IL-1beta; assay: as above
# Method: as §2
# [13] = molecular target: rat IL-1beta (rat, UniProt Q63264 117-268); assay: as above
# Chain of rat IL-1beta (Q63264 117-268 limits assumed): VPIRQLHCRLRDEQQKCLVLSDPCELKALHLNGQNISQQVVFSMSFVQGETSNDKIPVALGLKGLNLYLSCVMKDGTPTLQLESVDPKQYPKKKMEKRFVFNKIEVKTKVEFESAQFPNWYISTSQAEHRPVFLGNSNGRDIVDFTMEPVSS
# Method: as §2
# [14] = molecular target: T3, cynomolgus IL-1beta; assay: ELISA, cynomolgus IL-1beta coated, Example 5; based on MW 150 kDa
# Method: as §1
# [15] = molecular target: T4, His-tagged human IL-1beta; assay: ELISA, His-tagged human IL-1beta coated, Example 4 variant 2; based on MW 150 kDa
# Method: as §1
# [16] = molecular target: T1, human IL-1beta; assay: ELISA, human IL-1beta (Peprotech) coated, Example 4 variant 1; based on MW 150 kDa
# Method: as §1
# [17] = molecular target: T1, human IL-1beta; assay: SPR inhibition; 10 nM human IL-1beta pre-incubated with antibody, injected over immobilised human IL-1RI (competitor)
# Method: All experiments were performed at 25° C. using HBS-P (10 mM His, 140 mM NaCl, 0.05% Tween 20 pH 7.4) as running and dilution buffer. Human IL-1RI was immobilized on a Series S CM5 Sensor Chip (GE Healthcare) using standard amine coupling chemistry. […] The surface was regenerated by injecting 10 mM NaOH for 60 sec at a flow rate of 5 μl/min. Bulk refractive index differences were corrected by subtracting the response obtained from a mock surface.
# [18] = molecular target: T4, His-tagged human IL-1beta; assay: competition ELISA, His-tagged IL-1beta coated; competitor Fc-tagged human IL-1 receptor type I (Example 7); based on MW 150 kDa
# Method: (§3) The IC₅₀ was calculated with a four parameter logistic model using GraphPad Prism 6.0 software.
# [19] = molecular target: T4, His-tagged human IL-1beta; assay: competition ELISA, His-tagged IL-1beta coated; competitor Fc-tagged human IL-1 receptor type II (Example 8); based on MW 150 kDa
# Method: as §3
# [20] = molecular target: T4, His-tagged human IL-1beta; assay: competition ELISA, His-tagged IL-1beta coated; competitor Fc-tagged human IL-1 receptor type I (Example 7); IL-1beta receptor I (example 7)
# Method: as §3
# [21] = molecular target: T4, His-tagged human IL-1beta; assay: competition ELISA, His-tagged IL-1beta coated; competitor Fc-tagged human IL-1 receptor type II (Example 8); IL-1beta receptor II (example 8)
# Method: as §3
# Chain of rabbit IL-1beta (P14628 117-268 limits assumed): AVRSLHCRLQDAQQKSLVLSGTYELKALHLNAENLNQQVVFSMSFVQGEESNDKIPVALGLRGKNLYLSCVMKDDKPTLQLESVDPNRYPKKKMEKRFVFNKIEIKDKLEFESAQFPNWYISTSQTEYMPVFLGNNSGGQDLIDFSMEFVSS
binder,measurement,setting,value
"IL-1beta-mumAb (antibody, V domains shown, Murine antibody; also called murine anti-human IL-1beta antibody) VH: EVQLQQSGPELEKPGASVKISCKASGYSFTDYNMNWVRQSNGKSLEWIGNIDPYYGGTTYNQKFKDKATLTVDKSSSTAYMQLKSLTSEDSAVYYCAREGSPTRYYVMDYWGQGTSVTVSS VL: DIQMTQSPASLSASVGETVTITCRASENIYSNLAWYQQKQGKSPQLLVYAATNLADGVPSRFSGSGSGTQFSLKINSLQPEDFGSYYCHHFYNTPWTFGGGTKLEIK",Kd,[1],1.4 nM
same,"IC50, inhibition of ICAM-1 expression upon IL-1beta stimulation of A549 cells",[2],0.7 nM
same,"IC50, inhibition of ICAM-1 expression upon IL-1beta stimulation of HUVEC cells",[3],16.5 nM
same,"EC50, reduction of IL-6 expression upon IL-1beta stimulation of A549 cells",[4],1.09 nM
same,EC50,[5],0.0231 µg/mL
same,EC50,[6],0.0213 µg/mL
same,EC50,[7],0.0152 µg/mL
same,EC50,[8],0.034 µg/mL
same,EC50,[9],0.154 nM
same,Kd,[10],0.07 nM
same,koff,[10],7.5e-05 s⁻¹
same,kon,[10],1.12e+06 M⁻¹ s⁻¹
same,Kd,[11],0.08 nM
same,koff,[11],9.5e-05 s⁻¹
same,kon,[11],1.15e+06 M⁻¹ s⁻¹
same,Kd,[12],0.49 nM
same,koff,[12],0.00122 s⁻¹
same,kon,[12],2.47e+06 M⁻¹ s⁻¹
same,Kd,[13],0.31 nM
same,koff,[13],0.000636 s⁻¹
same,kon,[13],2.04e+06 M⁻¹ s⁻¹
same,EC50,[14],0.142 nM
same,EC50,[15],0.101 nM
same,EC50,[16],0.227 nM
same,IC50,[17],2.5 nM
same,IC50,[18],1.54 nM
same,IC50,[19],0.88 nM
same,IC50,[20],0.231 µg/mL
same,IC50,[21],0.132 µg/mL
